Laboratory results: the supplement of paper PMC5998384

How the values were obtained:
HeLa Kyoto [1] = test: solubility in G1/S (NP-40 vs SDS abundance) (log2 ratio); higher = more soluble; conditions: cell cycle stage: G1/S
HeLa Kyoto [2] = test: melting temperature (median over replicates), in situ; higher = more thermally stable
HeLa Kyoto [3] = test: thermal stability score vs G1/S (z-score of summed log2 fold changes over temperatures); higher = more thermally stable than in G1/S
HeLa Kyoto [4] = test: solubility change mitosis vs G1/S (difference of NP-40 vs SDS log2 ratios) (log2 ratio difference); higher = more soluble in mitosis
[5] = cell cycle stage: early G1 (4.5 h after nocodazole release)
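Wherever melting temperature (median over replicates), in situ is given: HeLa Kyoto cells synchronized by double thymidine or nocodazole block, proteins quantified by TMT10plex mass spectrometry, three independent biological replicates.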
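Wherever solubility change mitosis vs G1/S (difference of NP-40 vs SDS log2 ratios) is given: synchronized HeLa Kyoto cells (double thymidine block for G1/S, nocodazole release for mitosis), protein amounts in NP-40 versus SDS lysates quantified by mass spectrometry, three biological replicates.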
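Wherever solubility in G1/S (NP-40 vs SDS abundance) is given: HeLa Kyoto cells arrested at G1/S by double thymidine block, proteins quantified by TMT10plex mass spectrometry in mild NP-40 versus SDS extracts, three biological replicates.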
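Wherever thermal stability score vs G1/S (z-score of summed log2 fold changes over temperatures) is given: synchronized HeLa Kyoto cells, proteins quantified by TMT10plex mass spectrometry, three biological replicates, mitosis taken 0.5 h after nocodazole release, G1/S directly after double thymidine block.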

SORCS2, sequence (chain, as listed by the source): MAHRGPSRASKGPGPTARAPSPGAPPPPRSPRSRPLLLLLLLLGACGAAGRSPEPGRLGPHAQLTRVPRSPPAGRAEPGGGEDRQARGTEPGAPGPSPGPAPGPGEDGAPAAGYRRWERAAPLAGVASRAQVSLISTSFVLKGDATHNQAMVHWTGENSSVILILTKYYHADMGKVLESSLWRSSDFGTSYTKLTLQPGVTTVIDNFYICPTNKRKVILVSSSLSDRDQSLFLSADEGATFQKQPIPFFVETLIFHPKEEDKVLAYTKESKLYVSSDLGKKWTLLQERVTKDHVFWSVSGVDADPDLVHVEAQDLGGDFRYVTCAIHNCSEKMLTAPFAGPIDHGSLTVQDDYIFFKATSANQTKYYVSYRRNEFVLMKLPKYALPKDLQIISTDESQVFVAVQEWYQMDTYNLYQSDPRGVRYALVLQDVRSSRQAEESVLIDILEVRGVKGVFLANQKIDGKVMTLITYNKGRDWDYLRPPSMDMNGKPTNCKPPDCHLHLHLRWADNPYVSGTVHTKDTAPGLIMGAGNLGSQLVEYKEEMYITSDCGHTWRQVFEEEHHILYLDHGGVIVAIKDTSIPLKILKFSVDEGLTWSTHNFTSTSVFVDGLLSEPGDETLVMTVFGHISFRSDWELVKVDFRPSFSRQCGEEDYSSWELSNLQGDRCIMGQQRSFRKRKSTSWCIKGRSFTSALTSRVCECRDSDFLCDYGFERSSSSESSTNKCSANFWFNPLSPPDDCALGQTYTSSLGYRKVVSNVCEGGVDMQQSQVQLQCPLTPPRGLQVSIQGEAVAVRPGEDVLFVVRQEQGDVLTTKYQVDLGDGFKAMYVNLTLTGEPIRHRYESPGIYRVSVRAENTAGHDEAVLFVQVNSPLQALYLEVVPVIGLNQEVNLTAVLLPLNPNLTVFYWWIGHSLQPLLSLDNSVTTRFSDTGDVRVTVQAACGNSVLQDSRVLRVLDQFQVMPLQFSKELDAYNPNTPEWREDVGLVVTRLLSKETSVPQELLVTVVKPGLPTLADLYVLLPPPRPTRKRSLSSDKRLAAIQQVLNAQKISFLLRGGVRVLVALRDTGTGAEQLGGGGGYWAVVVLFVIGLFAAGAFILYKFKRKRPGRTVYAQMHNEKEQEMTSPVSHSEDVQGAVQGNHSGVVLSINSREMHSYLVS
RHOB, sequence (chain, as listed by the source): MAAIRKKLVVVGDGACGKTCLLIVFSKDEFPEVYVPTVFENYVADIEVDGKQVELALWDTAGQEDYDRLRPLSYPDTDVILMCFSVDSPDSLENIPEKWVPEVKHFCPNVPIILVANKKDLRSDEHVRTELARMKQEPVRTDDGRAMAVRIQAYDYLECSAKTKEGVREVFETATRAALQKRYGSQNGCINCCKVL
SIRT5, sequence (chain, as listed by the source): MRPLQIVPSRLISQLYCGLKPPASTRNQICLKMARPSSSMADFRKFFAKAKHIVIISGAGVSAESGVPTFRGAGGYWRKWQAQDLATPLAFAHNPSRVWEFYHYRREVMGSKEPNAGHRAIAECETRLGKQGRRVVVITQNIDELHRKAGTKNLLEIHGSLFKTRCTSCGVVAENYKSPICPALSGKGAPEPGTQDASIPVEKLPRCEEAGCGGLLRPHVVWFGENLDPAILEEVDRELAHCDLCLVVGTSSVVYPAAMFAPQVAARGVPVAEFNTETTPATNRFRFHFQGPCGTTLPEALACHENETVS
RPIA, sequence (chain, as listed by the source): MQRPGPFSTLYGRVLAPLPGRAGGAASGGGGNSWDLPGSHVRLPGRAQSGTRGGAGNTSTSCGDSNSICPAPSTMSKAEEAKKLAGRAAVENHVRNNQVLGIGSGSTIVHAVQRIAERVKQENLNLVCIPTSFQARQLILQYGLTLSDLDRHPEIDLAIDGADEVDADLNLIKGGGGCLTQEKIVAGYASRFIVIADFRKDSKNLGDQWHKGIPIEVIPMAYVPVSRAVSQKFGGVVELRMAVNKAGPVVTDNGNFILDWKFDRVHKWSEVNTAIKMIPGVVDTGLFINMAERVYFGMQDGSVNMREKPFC
RBPJ, sequence (chain, as listed by the source): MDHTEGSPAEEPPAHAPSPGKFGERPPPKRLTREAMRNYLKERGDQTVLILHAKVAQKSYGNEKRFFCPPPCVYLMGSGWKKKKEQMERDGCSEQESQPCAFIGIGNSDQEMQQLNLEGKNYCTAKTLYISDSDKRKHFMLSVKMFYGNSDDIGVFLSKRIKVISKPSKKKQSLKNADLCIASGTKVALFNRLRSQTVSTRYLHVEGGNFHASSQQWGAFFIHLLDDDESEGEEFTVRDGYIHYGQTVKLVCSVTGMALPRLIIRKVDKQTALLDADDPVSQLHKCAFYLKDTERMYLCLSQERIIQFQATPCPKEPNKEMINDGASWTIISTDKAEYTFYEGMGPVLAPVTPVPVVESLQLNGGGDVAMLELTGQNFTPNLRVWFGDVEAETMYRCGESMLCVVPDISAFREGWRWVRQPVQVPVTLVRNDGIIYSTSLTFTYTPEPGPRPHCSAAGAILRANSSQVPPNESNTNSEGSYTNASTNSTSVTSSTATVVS
PRRC2B, sequence (chain, as listed by the source): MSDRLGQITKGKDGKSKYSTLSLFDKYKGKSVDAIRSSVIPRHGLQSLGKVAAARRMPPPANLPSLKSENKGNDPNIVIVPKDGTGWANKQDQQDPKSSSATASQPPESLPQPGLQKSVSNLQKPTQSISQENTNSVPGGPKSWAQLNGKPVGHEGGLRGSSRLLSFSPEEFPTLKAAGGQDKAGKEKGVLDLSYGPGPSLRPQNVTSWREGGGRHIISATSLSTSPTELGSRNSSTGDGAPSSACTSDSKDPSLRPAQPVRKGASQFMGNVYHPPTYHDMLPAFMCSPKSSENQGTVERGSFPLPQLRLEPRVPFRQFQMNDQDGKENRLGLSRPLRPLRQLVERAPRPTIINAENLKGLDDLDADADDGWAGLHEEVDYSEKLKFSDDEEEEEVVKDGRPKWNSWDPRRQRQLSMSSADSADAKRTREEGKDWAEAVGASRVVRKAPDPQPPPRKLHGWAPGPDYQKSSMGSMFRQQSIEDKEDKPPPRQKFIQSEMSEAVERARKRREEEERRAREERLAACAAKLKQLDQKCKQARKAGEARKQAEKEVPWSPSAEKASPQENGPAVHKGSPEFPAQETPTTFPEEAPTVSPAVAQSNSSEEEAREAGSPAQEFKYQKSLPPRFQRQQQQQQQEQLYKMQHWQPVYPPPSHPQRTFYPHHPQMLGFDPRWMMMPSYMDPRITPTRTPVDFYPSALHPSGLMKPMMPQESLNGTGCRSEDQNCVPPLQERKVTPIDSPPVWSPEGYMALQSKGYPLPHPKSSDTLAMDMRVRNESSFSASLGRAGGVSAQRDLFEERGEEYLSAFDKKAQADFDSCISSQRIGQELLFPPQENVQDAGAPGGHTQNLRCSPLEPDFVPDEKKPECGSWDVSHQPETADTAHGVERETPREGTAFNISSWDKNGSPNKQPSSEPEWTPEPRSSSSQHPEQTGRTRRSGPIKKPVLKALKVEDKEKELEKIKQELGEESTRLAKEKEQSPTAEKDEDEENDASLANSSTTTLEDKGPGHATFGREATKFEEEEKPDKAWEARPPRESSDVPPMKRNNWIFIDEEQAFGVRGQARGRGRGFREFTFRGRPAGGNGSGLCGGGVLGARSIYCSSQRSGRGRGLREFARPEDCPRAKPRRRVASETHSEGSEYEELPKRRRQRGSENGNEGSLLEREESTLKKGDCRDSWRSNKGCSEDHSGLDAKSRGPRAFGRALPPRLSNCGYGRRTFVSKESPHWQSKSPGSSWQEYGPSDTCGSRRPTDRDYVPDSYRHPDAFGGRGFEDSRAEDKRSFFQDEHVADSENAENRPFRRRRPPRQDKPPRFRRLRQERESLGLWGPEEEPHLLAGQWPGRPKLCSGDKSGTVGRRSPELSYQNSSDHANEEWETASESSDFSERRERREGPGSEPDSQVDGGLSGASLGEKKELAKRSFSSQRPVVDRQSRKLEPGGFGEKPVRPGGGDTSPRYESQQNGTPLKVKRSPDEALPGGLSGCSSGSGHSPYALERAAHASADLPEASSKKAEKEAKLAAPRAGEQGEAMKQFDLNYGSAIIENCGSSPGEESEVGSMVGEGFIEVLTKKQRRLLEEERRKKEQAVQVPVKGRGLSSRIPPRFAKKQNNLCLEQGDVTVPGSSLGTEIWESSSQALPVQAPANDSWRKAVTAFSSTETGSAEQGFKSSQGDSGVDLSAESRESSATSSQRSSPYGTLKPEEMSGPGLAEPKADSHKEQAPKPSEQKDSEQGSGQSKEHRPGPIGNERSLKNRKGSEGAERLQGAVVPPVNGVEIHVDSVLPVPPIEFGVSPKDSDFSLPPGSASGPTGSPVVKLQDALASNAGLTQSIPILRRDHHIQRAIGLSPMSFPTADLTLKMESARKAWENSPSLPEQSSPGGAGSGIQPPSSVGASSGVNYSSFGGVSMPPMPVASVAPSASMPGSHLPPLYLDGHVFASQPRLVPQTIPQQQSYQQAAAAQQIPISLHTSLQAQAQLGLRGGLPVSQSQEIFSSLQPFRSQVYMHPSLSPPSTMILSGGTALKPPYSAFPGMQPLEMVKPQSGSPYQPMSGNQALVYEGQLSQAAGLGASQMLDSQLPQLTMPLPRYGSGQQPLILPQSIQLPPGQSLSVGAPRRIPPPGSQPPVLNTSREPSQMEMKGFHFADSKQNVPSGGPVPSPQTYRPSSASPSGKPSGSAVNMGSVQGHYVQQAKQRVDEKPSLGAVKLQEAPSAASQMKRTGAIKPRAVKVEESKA
REEP5, sequence (chain, as listed by the source): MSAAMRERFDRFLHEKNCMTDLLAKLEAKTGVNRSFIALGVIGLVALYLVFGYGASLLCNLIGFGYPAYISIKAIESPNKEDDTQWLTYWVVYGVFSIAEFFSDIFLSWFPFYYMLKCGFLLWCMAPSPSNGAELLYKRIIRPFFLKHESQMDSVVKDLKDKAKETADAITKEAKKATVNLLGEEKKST

Substance	solubility in G1/S (log2) (HeLa Kyoto [1])	melting temperature (HeLa Kyoto [2]; cell cycle stage: G1/S)	melting temperature (HeLa Kyoto [2]; cell cycle stage: mitosis)	thermal stability score (HeLa Kyoto [3]; [5])	thermal stability score (HeLa Kyoto [3]; cell cycle stage: mitosis)	solubility change mitosis (log2) (HeLa Kyoto [4])
PRRC2B	-0.236	51.9 °C	52.2 °C	1.22	3.15	0.078
PSIP1	0.071	50.8 °C	52.2 °C	-1.03	-2.11	0.557
PSME2	0.142	52.8 °C	53.8 °C	-0.487	2.4	0.0782
PSME4	-0.391	52.1 °C	52.2 °C	-0.516	-0.817	-0.0943
PTPN23	0.216	49.6 °C	49.2 °C	-1.39	-2.28	-0.134
RAB1A	0.166	60.3 °C	60.6 °C	-1.51	-4.28	-0.093
RAB1B	0.0965	57.8 °C	58 °C	-0.394	-2.04	-0.0321
RAB35	-0.0302	56.3 °C	56.2 °C	-0.529	-1.17	0.0226
RB1CC1	-0.0448	51.4 °C	50.2 °C	-0.0649	0.267	-0.219
RBBP6	-0.908	49 °C	49.9 °C	-2.06	3.66	0.511
RBPJ	-0.198	54.8 °C	54.4 °C	0.21	-0.976	0.039
REEP5	-0.148	55.4 °C	57.6 °C	-0.45	-0.719	-0.114
RHOB	0.157	57.2 °C	58.2 °C	-0.544	-0.587	-0.114
RHOT2	-0.00866	50.7 °C	50.5 °C	-0.0452	-0.352	-0.0417
RNF213	-0.346	49.9 °C	49.8 °C	0.57	1.78	-0.11
ROBO1	0.177	55.3 °C	54.4 °C	-4.69	-6.19	-0.145
RPE	0.306	56 °C	55.2 °C	-0.485	-1.28	0.356
RPIA	0.208	56.4 °C	55.2 °C	-0.283	-2.14	-0.157
RSBN1	-0.345	–	53.1 °C	-1.37	-1.2	0.0741
SBF1	-0.118	50.9 °C	50.4 °C	0.301	-0.247	-0.108
SETX	-0.385	49.9 °C	51 °C	0.199	1.04	0.0473
SIRT5	0.419	50.9 °C	50.9 °C	-0.174	0.987	-0.233
SLC7A1	-0.215	61.5 °C	60.9 °C	-2.64	-4.52	-0.171
SLC38A10	-0.351	54.2 °C	54.7 °C	2.59	0.548	0.284
SMARCA2	-0.129	47.8 °C	49.7 °C	2.43	4.33	-0.051
SON	-1.78	47.4 °C	49.4 °C	0.322	4.26	1.3
SORCS2	0.0123	53.7 °C	50.4 °C	-2.23	-3.21	-0.162
SPCS2	0.173	51.9 °C	52.8 °C	-0.361	-0.329	-0.0337
SPEN	-0.619	49 °C	50.4 °C	1.63	4.49	0.433
SRGAP1	0.2	50.5 °C	51.2 °C	0.466	0.773	-0.1
